Reference: patent publication US11618906B2, “Hydroxylation techniques” (HYPHA DISCOVERY LTD., priority 2018, dated 2023)

Legend:
Type in all cases: biochemical
[1] = Metabolism of tivantinib by P450 aluC09 and mutants; conditions: percent of substrate being converted; 0.125 mg/ml, 27° C., 16-20 hours; [CYP] per enzyme as in Table 8
Method: (§1) Lyophilised material of mutants of CYP450aluC09, ferredoxinaluF03 and ferredoxin reductaseSCF15A was made as described in examples 3 and 4 and suspended in water (0.5 mL per vial) and biocatalysis was performed at 27° C. in the following conditions: 50 mM potassium phosphate pH 7.4, 5 mM MgCl2, 0.125 mg/ml substrate compound such as diclofenac (Sigma-Aldrich, UK), Aceclofenac (Tokyo Chemical Industry UK Ltd, UK), Indomethacin (Sigma-Aldrich, UK), Flufenamic acid (Sigma-Aldrich, UK), Napropamide (Sigma-Aldrich, UK), celecoxib (LC Laboratories, USA), valsartan (Tokyo Chemical Industry UK Ltd, UK), ruxolitinib (LC Laboratories, USA), 4-pyrrolidylacetophenone (Sigma-Aldrich, UK), tofacitinib (LC Laboratories, USA), bosentan (CarboSynth Ltd, UK), buparvaquone (MedChemtronica, Sweden), BIRB796 (Stratech Scientific Limited, UK), epothilone B (LC Laboratories, USA), ritonavir (Tokyo Chemical Industry UK Ltd, UK) or tivantinib (MedChemtronica, Sweden), P450AluC09 (concentration as in Table 8), 5 mM G6P, 1 mM NADP, 2 UN/ml G6PDH in a final volume of 100 μL. After 16-20 hours at 200 rpm (5 cm orbital shaker, Kuhner AG, Switzerland), reactions were extracted with an equal volume of acetonitrile, centrifuged to remove precipitated proteins and conversion assessed by UPLC-MS analysis.
(§2) However, of particular note when considering P450 concentration are the results for mutants M12, M20 and M34, as well as the deleterious impact on the range of substrate utility in mutants M39 and M40.

[2] = Metabolism of BIRB796 by P450 aluC09 and mutants; conditions: percent of substrate being converted; 0.125 mg/ml, 27° C., 16-20 hours; [CYP] per enzyme as in Table 8
Method: as §1, §2

[3] = Metabolism of epothilone B by P450 aluC09 and mutants; conditions: percent of substrate being converted; 0.125 mg/ml, 27° C., 16-20 hours; [CYP] per enzyme as in Table 8
Method: as §1, §2

[4] = Metabolism of buparvaquone by P450 aluC09 and mutants; conditions: percent of substrate being converted; 0.125 mg/ml, 27° C., 16-20 hours; [CYP] per enzyme as in Table 8
Method: as §1, §2

[5] = Hydroxylation of aceclofenac catalysed by cytochrome P450 aluC09 and mutants; conditions: for Aceclofenac (Substrate) (1.80 mins) / Dihydroxy-Aceclofenac (1.42 mins) / Hydroxy-Aceclofenac (1) (1.64 min) / Hydroxy-Aceclofenac (2) (1.60 min): % by UV peak area at 275 nm, 0.125 mg/ml substrate, 27° C., 16-20 hours; for Hydroxylated Ratio 2:1: aceclofenac, ratio of UV peak areas at 275 nm
Method: as §1
(§3) UPLC data was obtained as follows:
(§4) Column: Acquity UPLC BEH Shield RP18 1.7 μm 2.1 mm i.d. 50 mm length
(§5) Solvents: H2O, B: Acetonitrile, both with 0.1% Formic acid
(§6) Detector: Waters Acquity UPLC PDA (UV-Vis detection) and Waters Acquity UPLC QDA (MS)
Chromatograms are provided in FIGS. 5a-c; aceclofenac elutes at 1.80 minutes, hydroxy-aceclofenac acid 1 elutes at 1.64 minutes, hydroxy-aceclofenac acid 2 elutes at 1.60 minutes and dihydroxy-aceclofenac elutes at 1.42 minutes.

[6] = Hydroxylation / de-N-ethylation of napropamide catalysed by cytochrome P450 aluC09 and mutants; conditions: for Desethyl Napropamide (1.62 min) / Desethyl-hydroxy-Napropamide (1.41 min) / Hydroxy-Napropamide (1) (1.53 min) / Hydroxy-Napropamide (2), (1.52 min) / M-2Da (unidentified) (1.89 min) / Napropamide (substrate): % by UV peak area at 275 nm, 0.125 mg/ml substrate, 27° C., 16-20 hours; for Hydroxylated Ratio 2:1: napropamide, ratio of UV peak areas
Method: as §1, §3, §4, §5, §6
Napropamide elutes at 1.76 minutes, unidentified metabolite (−2 Da) elutes at 1.90 minutes, desethyl-napropamide elutes at 1.62 minutes, hydroxy-napropamide 1 elutes at 1.53 minutes and hydroxy-napropamide 2 elutes at 1.52 minutes and the desethyl-hydroxy-napropamide product elutes at 1.41 minutes.

[7] = Hydroxylation of diclofenac catalysed by cytochrome P450 aluC09 and mutants (UPLC-PDA-MS); conditions: for 4′,5-dihydroxy-diclofenac 1.38 mins / 4′-hydroxy-diclofenac (1) 1.62 mins / 5-hydroxy-diclofenac (2) 1.58 mins / Diclofenac (Substrate) 1.81 mins: % by UV peak area at 275 nm, 0.125 mg/ml substrate, 27° C., 16-20 hours; for Hydroxylated Ratio hydroxy 1:hydroxy 2: diclofenac, ratio of UV peak areas at 275nm
Method: as §1, §3, §4, §5, §6
Illustrative results for the hydroxylation of diclofenac by CYP450aluC09 and selected T291x mutants are summarised below in Table 3 with representative chromatograms resented in FIG. 3a-c; retention times: diclofenac 1.85-1.88 minutes, 5-hydroxydiclofenac 1.60-1.63 minutes, 4′-hydroxydiclofenac 1.65-1.68 minutes, 4′,5-dihydroxydiclofenac 1.40-1.42 minutes. The chromatographic retention times and mass spectra coincided with those of authentic samples.

[8] = Metabolism of ritonavir by P450 aluC09 and mutants; conditions: percent of substrate being converted; 0.125 mg/ml, 27° C., 16-20 hours; [CYP] per enzyme as in Table 8
Method: as §1, §2

[9] = Hydroxylation of flufenamic acid catalysed by cytochrome P450 aluC09 and mutants; conditions: for Flufenamic Acid (Substrate) 1.93 mins / Hydroxy-Flufenamic Acid (1) 1.69 mins / Hydroxy-Flufenamic Acid (2) 1.65 mins: % by UV peak area at 275 nm, 0.125 mg/ml substrate, 27° C., 16-20 hours; for Hydroxylated Ratio 1:2: flufenamic acid, ratio of UV peak areas at 275 nm
Method: as §1, §3, §4, §5, §6
Flufenamic acid elutes at 1.93 minutes, hydroxy-flufenamic acid 1 elutes at 1.68 minutes and hydroxy-flufenamic acid 2 elutes at 1.65 minutes.

[10] = Metabolism of bosentan by P450 aluC09 and mutants; conditions: percent of substrate being converted; 0.125 mg/ml, 27° C., 16-20 hours; [CYP] per enzyme as in Table 8
Method: as §1, §2

[11] = O-demethylation of indomethacin catalysed by cytochrome P450 aluC09 and mutants; conditions: % by UV peak area at 275 nm; 0.125 mg/ml substrate, 27° C., 16-20 hours
Method: as §1, §3, §4, §5, §6

[12] = Metabolism of 4-pyrrolidylacetophenone by P450 aluC09 and mutants; conditions: percent of substrate being converted; 0.125 mg/ml, 27° C., 16-20 hours; [CYP] per enzyme as in Table 8
Method: as §1, §2

[13] = Metabolism of tofacitinib by P450 aluC09 and mutants; conditions: percent of substrate being converted; 0.125 mg/ml, 27° C., 16-20 hours; [CYP] per enzyme as in Table 8
Method: as §1, §2

[14] = Metabolism of valsartan by P450 aluC09 and mutants; conditions: percent of substrate being converted; 0.125 mg/ml, 27° C., 16-20 hours; [CYP] per enzyme as in Table 8
Method: as §1, §2

[15] = Metabolism of celecoxib by P450 aluC09 and mutants; conditions: percent of substrate being converted; 0.125 mg/ml, 27° C., 16-20 hours; [CYP] per enzyme as in Table 8
Method: as §1, §2

[16] = Metabolism of ruxolitinib by P450 aluC09 and mutants; conditions: percent of substrate being converted; 0.125 mg/ml, 27° C., 16-20 hours; [CYP] per enzyme as in Table 8
Method: as §1, §2

B1: aluC09M34: cytochrome P450 aluC09 mutant T291M; amino acid sequence SEQ ID NO: 48 (protein, listed as Amycolatopsis lurida)
chain: MTDVEETTATLPLARKCPFSPPPEYERLRRESPVSRVGLPSGQTAWALTRLEDIREMLSSPHFSSDRQSPSFPLMVARQIRREDKPFRPSLIAMDPPEHSRARRDVVGEFTVKRMKALQPRIQQIVDEHLDALLAGPKPADLVQALSLPVPSLVICELLGVPYSDHEFFQSCSSRMLSREVTAEERMTAFEQLENYLDELVTKKEANATEDDLLGRQILKQRETGEADHGELVGLAFLLLIAGHETTANMISLGTVTLLENPDQLAKIKADPGKTLAAIEELLRVFTIAEMATSRFATADVEIGGTLIRAGEGVVGLSNAGNHDPDGFENPDTFDIERGARHHVAFGFGVHQCLGQNLARLELQIVFDTLFRRVPGLRIAVPVDELPFKHDSTIYGLHALPVTW
In the case of B1, the “% conversions (avg) Tivantinib” value [1] is reported as 59.1%, the “% conversions (avg) BIRB796” value [2] is reported as 18% and the “% conversions (avg) Epothilone B” value [3] is reported as 30.7%. For the same molecule, the “% conversions (avg) Buparvaquone” value [4] was 11.6%, the “Aceclofenac (Substrate) (1.80 mins)” value [5] was 36.6% and the “Dihydroxy-Aceclofenac (1.42 mins)” value [5] was 21.3%. For the same molecule, the “Hydroxy-Aceclofenac (1) (1.64 min)” value [5] was 15.2%, the “Hydroxy-Aceclofenac (2) (1.60 min)” value [5] was 26.8% and the “Hydroxylated Ratio 2:1” value [5] was 1.8. For the same molecule, the “Desethyl Napropamide (1.62 min)” value [6] was 40.7%, the “Desethyl-hydroxy-Napropamide (1.41 min)” value [6] was 5.3% and the “Hydroxy-Napropamide (1) (1.53 min)” value [6] was 3.4%. For the same molecule, the “Hydroxy-Napropamide (2), (1.52 min)” value [6] was 3.7%, the “M-2Da (unidentified) (1.89 min)” value [6] was 5.3% and the “Napropamide (substrate)” value [6] was 44.0%. For the same molecule, the “Hydroxylated Ratio 2:1” value [6] was 1.1, the “4′,5-dihydroxy-diclofenac 1.38 mins” value [7] was 1.3% and the “4′-hydroxy-diclofenac (1) 1.62 mins” value [7] was 35.3%. For the same molecule, the “5-hydroxy-diclofenac (2) 1.58 mins” value [7] was 10.4%, the “Diclofenac (Substrate) 1.81 mins” value [7] was 53.6% and the “Hydroxylated Ratio hydroxy 1:hydroxy 2” value [7] was 3.4. For the same molecule, the “% conversions (avg) Ritonavir” value [8] was 50.3%, the “Flufenamic Acid (Substrate) 1.93 mins” value [9] was 94.0% and the “Hydroxy-Flufenamic Acid (1) 1.69 mins” value [9] was 3.8%. For the same molecule, the “Hydroxy-Flufenamic Acid (2) 1.65 mins” value [9] was 2.2%, the “Hydroxylated Ratio 1:2” value [9] was 1.7 and the “% conversions (avg) Bosentan” value [10] was 99%. For the same molecule, the “Indomethacin (1.74 mins)” value [11] was 96.2%, the “O-demethyl-Indomethacin (1.52 mins)” value [11] was 3.8% and the “% conversions (avg) 4-pyrrolidylacetophenone” value [12] was 7.3%. For the same molecule, the “% conversions (avg) Tofacitinib” value [13] was 3.1%, the “% conversions (avg) Valsartan” value [14] was 43.2% and the “% conversions (avg) Celecoxib” value [15] was 6.8%.

B2: aluC09M11: cytochrome P450 aluC09 mutant T291D; amino acid sequence SEQ ID NO: 8 (protein, listed as Amycolatopsis lurida)
chain: MTDVEETTATLPLARKCPFSPPPEYERLRRESPVSRVGLPSGQTAWALTRLEDIREMLSSPHFSSDRQSPSFPLMVARQIRREDKPFRPSLIAMDPPEHSRARRDVVGEFTVKRMKALQPRIQQIVDEHLDALLAGPKPADLVQALSLPVPSLVICELLGVPYSDHEFFQSCSSRMLSREVTAEERMTAFEQLENYLDELVTKKEANATEDDLLGRQILKQRETGEADHGELVGLAFLLLIAGHETTANMISLGTVTLLENPDQLAKIKADPGKTLAAIEELLRVFTIAEDATSRFATADVEIGGTLIRAGEGVVGLSNAGNHDPDGFENPDTFDIERGARHHVAFGFGVHQCLGQNLARLELQIVFDTLFRRVPGLRIAVPVDELPFKHDSTIYGLHALPVTW
For B2, the “% conversions (avg) Tivantinib” value [1] was 34.2%, the “% conversions (avg) Ruxolitinib” value [16] was 35.7% and the “% conversions (avg) Epothilone B” value [3] was 8.5%. For the same molecule, the “% conversions (avg) Buparvaquone” value [4] was 15.8%, the “Aceclofenac (Substrate) (1.80 mins)” value [5] was 17.5% and the “Dihydroxy-Aceclofenac (1.42 mins)” value [5] was 35.2%. For the same molecule, the “Hydroxy-Aceclofenac (1) (1.64 min)” value [5] was 6.3%, the “Hydroxy-Aceclofenac (2) (1.60 min)” value [5] was 41.0% and the “Hydroxylated Ratio 2:1” value [5] was 6.5. For the same molecule, the “Desethyl Napropamide (1.62 min)” value [6] was 36.6%, the “Desethyl-hydroxy-Napropamide (1.41 min)” value [6] was 8.7% and the “Hydroxy-Napropamide (1) (1.53 min)” value [6] was 1.5%. For the same molecule, the “Hydroxy-Napropamide (2), (1.52 min)” value [6] was 3.1%, the “M-2Da (unidentified) (1.89 min)” value [6] was 6.7% and the “Napropamide (substrate)” value [6] was 47.6%. For the same molecule, the “Hydroxylated Ratio 2:1” value [6] was 2.1, the “4′,5-dihydroxy-diclofenac 1.38 mins” value [7] was 2.3% and the “4′-hydroxy-diclofenac (1) 1.62 mins” value [7] was 25.3%. For the same molecule, the “5-hydroxy-diclofenac (2) 1.58 mins” value [7] was 25.1%, the “Diclofenac (Substrate) 1.81 mins” value [7] was 48.3% and the “Hydroxylated Ratio hydroxy 1:hydroxy 2” value [7] was 1.0. For the same molecule, the “% conversions (avg) Ritonavir” value [8] was 57.3%, the “Flufenamic Acid (Substrate) 1.93 mins” value [9] was 94.7% and the “Hydroxy-Flufenamic Acid (1) 1.69 mins” value [9] was 3.4%. The “Hydroxy-Flufenamic Acid (2) 1.65 mins” value [9] was 1.9%, the “Hydroxylated Ratio 1:2” value [9] was 1.8 and the “% conversions (avg) Bosentan” value [10] was 100%. The “Indomethacin (1.74 mins)” value [11] was 92.6%, the “O-demethyl-Indomethacin (1.52 mins)” value [11] was 7.4% and the “% conversions (avg) 4-pyrrolidylacetophenone” value [12] was 21.4%. For the same molecule, the “% conversions (avg) Tofacitinib” value [13] was 1.4%, the “% conversions (avg) Valsartan” value [14] was 26% and the “% conversions (avg) Celecoxib” value [15] was 3.2%.
